Measurements taken from US12295987B2, “Method of using a GIP/GLP1 co-agonist for diabetes” (Eli Lilly and Company, priority 2018, dated 2025).

Target: T1, human gastric inhibitory peptide receptor (hGIPR) (Homo sapiens, UniProt P48546)
T1 construct: expressed in transfected cells; host or cells: HEK293
T1 sequence (P48546 22-466): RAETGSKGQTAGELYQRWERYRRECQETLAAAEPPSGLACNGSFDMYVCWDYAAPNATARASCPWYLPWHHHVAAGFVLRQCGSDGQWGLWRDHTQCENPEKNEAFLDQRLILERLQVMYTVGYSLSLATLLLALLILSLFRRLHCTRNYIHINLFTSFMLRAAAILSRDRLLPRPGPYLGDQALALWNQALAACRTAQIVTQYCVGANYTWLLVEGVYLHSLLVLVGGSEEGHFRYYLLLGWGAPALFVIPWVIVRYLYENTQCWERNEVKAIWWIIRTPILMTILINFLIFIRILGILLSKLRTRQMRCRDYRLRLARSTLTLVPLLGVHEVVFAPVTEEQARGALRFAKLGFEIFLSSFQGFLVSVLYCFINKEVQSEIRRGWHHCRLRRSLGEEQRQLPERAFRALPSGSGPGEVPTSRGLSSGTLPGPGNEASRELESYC
Test: cAMP pharmacological functional assay in presence of 0.1% casein, hGIPR
Assay type: cell-based
Details: ratio of hGIPR to hGLP1R cAMP EC50 ratios

Substance	[hGIPR/hGLP1R] EC50 Ratio
Y-Aib-EGT-αMeF(2F)-TSDQSI-αMeL-LDEK((2-[2-(2-Amino-ethoxy)-ethoxy]-acetyl)2-(γGlu)-CO—(CH2)18—CO2H)AQ-Aib-EFI-(D-Glu)-YLIEGGPSSGAPPPS-NH2 (YXEGTXTSDQSIXLDEKAQXEFIXYLIEGGPSSGAPPPS; Aib, αMeF(2F), αMeL, D-Glu; lipidated K; amide; (2)..(2) Xaa at position 2 is Aib; (6)..(6) Xaa at position 6 is alpha-methyl-Phe(2F); (13)..(13) Xaa at position 13 is alpha-methyl-Leu; MOD_RES (17)..(17) Lys at position 17 is chemically modified by conjugation of the epsilon-amino group of the Lys side chain with (2-[2-(2-amino-ethoxy)-ethoxy]-acetyl)2-(gamma-Glu)-CO-(CH2)18- CO2H; (20)..(20) Xaa at position 20 is Aib; (24)..(24) Xaa at positi) [Peptide 187]	6.57
Y-Aib-EGT-αMeF(2F)-TSDYSI-αMeL-LD-Dab-K((2-[2-(2-Amino-ethoxy)-ethoxy]-acetyl)2-(γGlu)-CO—(CH2)18—CO2H)AQ-Aib-EFI-(D-Glu)-YLIEGGPSSGAPPPS-NH2 (YXEGTXTSDYSIXLDXKAQXEFIXYLIEGGPSSGAPPPS; Aib, αMeF(2F), αMeL, Dab, D-Glu; lipidated K; amide; (2)..(2) Xaa at position 2 is Aib; (6)..(6) Xaa at position 6 is alpha-methyl-Phe(2F); (13)..(13) Xaa at position 13 is alpha-methyl-Leu; (16)..(16) Xaa at position 16 is Dab; MOD_RES (17)..(17) Lys at position 17 is chemically modified by conjugation of the epsilon-amino group of the Lys side chain with (2-[2-(2-amino-ethoxy)-ethoxy]-acetyl)2-(gamma-Glu)-CO-(CH2)18- CO2H; (20)..(20) Xaa at positi) [Peptide 217]	2.99
Y-Aib-EGT-αMeF-TSDHSILLDKK((2-[2-(2-Amino-ethoxy)-ethoxy]-acetyl)2-(γGlu)-CO—(CH2)18—CO2H)AQ-Aib-AFIEYLIEGGPSSGAPPPS-NH2 (YXEGTXTSDHSILLDKKAQXAFIEYLIEGGPSSGAPPPS; Aib, αMeF; acylated lysine C20 diacid; amide; (2)..(2) Xaa at position 2 is Aib; (6)..(6) Xaa at position 6 is alpha-methyl-Phe; MOD_RES (17)..(17) Lys at position 17 is chemically modified by conjugation of the epsilon-amino group of the Lys side chain with (2-[2-(2-amino-ethoxy)-ethoxy]-acetyl)2-(gamma-Glu)-CO-(CH2)18- CO2H; (20)..(20) Xaa at position 20 is Aib; MOD_RES (39)..(39) Ser at position 39 is amidated) [Peptide 128]	3.51
Y-Aib-EGT-αMeF(2F)-TSD-4Pal-SI-αMeL-LDEK((2-[2-(2-Amino-ethoxy)-ethoxy]-acetyl)2-CO—(CH2)16—CO2H)AQ-Aib-EFI-(D-Glu)-YLIEGGPSSGAPPPS-NH2 (YXEGTXTSDXSIXLDEKAQXEFIXYLIEGGPSSGAPPPS; Aib, αMeF(2F), 4Pal, αMeL, D-Glu; lipidated K; amide; (2)..(2) Xaa at position 2 is Aib; (6)..(6) Xaa at position 6 is alpha-methyl-Phe(2F); (10)..(10) Xaa at position 10 is 4Pal; (13)..(13) Xaa at position 13 is alpha-methyl-Leu; MOD_RES (17)..(17) Lys at position 17 is chemically modified by conjugation of the epsilon-amino group of the Lys side chain with (2-[2-(2-amino-ethoxy)-ethoxy]-acetyl)2-CO-(CH2)16-CO2H; (20)..(20) Xaa at position 20 is Aib) [Peptide 205]	3.91
